Source: US20130149309A1

Molecular target: γ-secretase of HEK293 cell membrane preparations
Assay: cell-based or functional assay

Substance: recombinant gSAP-16K (aa733-854 of the human gSAP), expressed and purified from BL21 DE3 E.coli (from UniProt A4D1B5 733-854)
- Aβ production in an in vitro γ-secretase assay: 2.4 fold
